Values quoted from earlier work, collected in patent US20150316548A1, “PROGRANULIN AS MARKER FOR AUTOIMMUNE DISORDERS” (UNIVERSITAET DES SAARLANDES, priority 2012, published 2015).

Legend:
TNF-α-receptors 1 and 2 = conditions: mouse models, versus Etanercept; cited from earlier work
TNF-Tg/GRN−/− mice = conditions: cited from earlier work
[1] = system: cytotoxic effects of TNF-α; conditions: in vitro; cited from earlier work
[2] = progranulin, reference [1]; cited from earlier work

B1: progranulin: secreted glycoprotein, precursor with N-terminal signal peptide and seven granulin motifs; SEQ ID NO: 1 (protein, listed as Homo sapiens)
chain: MWTLVSWVALTAGLVAGTRCPDGQFCPVACCLDPGGASYSCCRPLLDKWPTTLSRHLGGPCQVDAHCSAGHSCIFTVSGTSSCCPFPEAVACGDGHHCCPRGFHCSADGRSCFQRSGNNSVGAIQCPDSQFECPDFSTCCVMVDGSWGCCPMPQASCCEDRVHCCPHGAFCDLVHTRCITPTGTHPLAKKLPAQRTNRAVALSSSVMCPDARSRCPDGSTCCELPSGKYGCCPMPNATCCSDHLHCCPQDTVCDLIQSKCLSKENATTDLLTKLPAHTVGDVKCDMEVSCPDGYTCCRLQSGAWGCCPFTQAVCCEDHIHCCPAGFTCDTQKGTCEQGPHQVPWMEKAPAHLSLPDPQALKRDVPCDNVSSCPSSDTCCQLTSGEWGCCPIPEAVCCSDHQHCCPQGYTCVAEGQCQRGSEIVAGLEKMPARRASLSHPRDIGCDQHTSCPVGQTCCPSLGGSWACCQLPHAVCCEDRQHCCPAGYTCNVKARSCEKEVVSAQPATFLARSPHVGVKDVECGEGHFCHDNQTCCRDNRQGWACCPYRQGVCCADRRHCCPAGFRCAARGTKCLRREAPRWDAPLRDPALRQLL
modifications: misc (1)..(593) Progranulin
- strength of the anti-inflammatory effect (TNF-α-receptors 1 and 2): comparable to the effect of the synthetic TNF-blocker “Etanercept”
- clinical response of spontaneous arthritis (TNF-Tg/GRN−/− mice): rapid clinical recovery
- plasma levels of cartilage oligomeric matrix protein (COMP) (TNF-Tg/GRN−/− mice): decreased
- protection of cells from cytotoxic effects of TNF-α [1]: protected cells in vitro from cytotoxic effects of TNF-α
- half-life [2]: about 40 h
